Here are results for one molecule from PMC9365288 (Science Advances, 2022).

The assay concerns the target Recombinant TRAF-USP7 (residues 55 to 208) (UniProt Q93009 55-208). The assay is described as follows: SPR. Background: In SPR one partner is held on a chip, and binding of the other changes the refractive index at the surface.

Recombinant TRAF-USP7 (residues 55 to 208), sequence (Q93009 55-208): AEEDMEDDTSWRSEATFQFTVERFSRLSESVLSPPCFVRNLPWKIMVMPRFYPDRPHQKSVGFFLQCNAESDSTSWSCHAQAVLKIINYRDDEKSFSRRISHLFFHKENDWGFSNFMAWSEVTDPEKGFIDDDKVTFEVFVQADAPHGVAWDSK

B1: Recombinant BTB-Keap1 (residues 48 to 180) (domain or fragment, UniProt Q14145 48-180, looked up)
chain: GNRTFSYTLEDHTKQAFGIMNELRLSQQLCDVTLQVKYQDAPAAQFMAHKVVLASSSPVFKAMFTNGLREQGMEVVSIEGIHPKVMERLIEFAYTASISMGEKCVLHVMNGAVMYQIDSVVRACSDFLVQQLD
Regarding B1, the dissociation constant (Kd) (usually the concentration at which binding is half-saturated) came out at 18 nM.
